The target in test [1] is T1, rat collagen (acid soluble, type I, rat tail, Upstate 08-115) (rat, UniProt P02454 152-1207; P02466 86-1125).
T1 construct: gelled and dried as a fibril film in the dried collagen assay; also called dried rat collagen; insoluble rat collagen
Nature of the test: dried collagen assay.

The target of test [2] is T2, human collagen type I (acid soluble, extracted from placenta, Sigma C7774) (human, UniProt P02452 162-1218; P08123 80-1119).
T2 construct: gelled and dried as a fibril film in the dried collagen assay; also called dried human collagen; h-Collagen
Nature of the test: dried collagen assay.

Bridge positions count the residues as written; N and C are the ends. Ends that are not written are not given here.

T1 sequence (P02454 152-1207, chain 1 of 2): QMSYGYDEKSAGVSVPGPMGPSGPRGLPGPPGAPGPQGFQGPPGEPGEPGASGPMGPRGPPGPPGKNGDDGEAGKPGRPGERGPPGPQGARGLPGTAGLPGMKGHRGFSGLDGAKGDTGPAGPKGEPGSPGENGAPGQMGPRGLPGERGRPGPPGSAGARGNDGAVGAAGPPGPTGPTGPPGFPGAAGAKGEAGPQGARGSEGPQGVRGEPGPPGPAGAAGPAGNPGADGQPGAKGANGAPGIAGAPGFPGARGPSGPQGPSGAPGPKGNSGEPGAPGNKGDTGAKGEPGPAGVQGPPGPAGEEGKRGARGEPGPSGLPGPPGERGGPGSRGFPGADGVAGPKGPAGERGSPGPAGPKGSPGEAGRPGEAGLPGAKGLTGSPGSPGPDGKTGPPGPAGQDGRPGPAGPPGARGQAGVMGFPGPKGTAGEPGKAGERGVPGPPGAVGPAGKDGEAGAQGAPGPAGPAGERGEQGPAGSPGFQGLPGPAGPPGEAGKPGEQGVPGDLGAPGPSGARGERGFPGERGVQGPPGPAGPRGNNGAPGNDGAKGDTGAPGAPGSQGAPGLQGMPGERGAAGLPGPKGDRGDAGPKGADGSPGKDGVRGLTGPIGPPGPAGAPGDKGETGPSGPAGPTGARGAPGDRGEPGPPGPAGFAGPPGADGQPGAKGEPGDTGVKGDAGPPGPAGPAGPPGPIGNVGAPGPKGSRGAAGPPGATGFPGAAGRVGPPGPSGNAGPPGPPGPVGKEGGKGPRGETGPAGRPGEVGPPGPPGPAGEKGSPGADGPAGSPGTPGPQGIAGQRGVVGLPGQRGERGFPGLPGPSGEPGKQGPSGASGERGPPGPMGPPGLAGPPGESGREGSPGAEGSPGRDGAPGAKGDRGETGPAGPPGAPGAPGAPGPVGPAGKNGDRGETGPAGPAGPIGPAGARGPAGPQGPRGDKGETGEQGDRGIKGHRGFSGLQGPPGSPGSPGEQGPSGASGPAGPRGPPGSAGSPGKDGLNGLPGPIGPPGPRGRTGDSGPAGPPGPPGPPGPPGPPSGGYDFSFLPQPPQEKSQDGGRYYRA
T1 sequence (P02466 86-1125, chain 2 of 2): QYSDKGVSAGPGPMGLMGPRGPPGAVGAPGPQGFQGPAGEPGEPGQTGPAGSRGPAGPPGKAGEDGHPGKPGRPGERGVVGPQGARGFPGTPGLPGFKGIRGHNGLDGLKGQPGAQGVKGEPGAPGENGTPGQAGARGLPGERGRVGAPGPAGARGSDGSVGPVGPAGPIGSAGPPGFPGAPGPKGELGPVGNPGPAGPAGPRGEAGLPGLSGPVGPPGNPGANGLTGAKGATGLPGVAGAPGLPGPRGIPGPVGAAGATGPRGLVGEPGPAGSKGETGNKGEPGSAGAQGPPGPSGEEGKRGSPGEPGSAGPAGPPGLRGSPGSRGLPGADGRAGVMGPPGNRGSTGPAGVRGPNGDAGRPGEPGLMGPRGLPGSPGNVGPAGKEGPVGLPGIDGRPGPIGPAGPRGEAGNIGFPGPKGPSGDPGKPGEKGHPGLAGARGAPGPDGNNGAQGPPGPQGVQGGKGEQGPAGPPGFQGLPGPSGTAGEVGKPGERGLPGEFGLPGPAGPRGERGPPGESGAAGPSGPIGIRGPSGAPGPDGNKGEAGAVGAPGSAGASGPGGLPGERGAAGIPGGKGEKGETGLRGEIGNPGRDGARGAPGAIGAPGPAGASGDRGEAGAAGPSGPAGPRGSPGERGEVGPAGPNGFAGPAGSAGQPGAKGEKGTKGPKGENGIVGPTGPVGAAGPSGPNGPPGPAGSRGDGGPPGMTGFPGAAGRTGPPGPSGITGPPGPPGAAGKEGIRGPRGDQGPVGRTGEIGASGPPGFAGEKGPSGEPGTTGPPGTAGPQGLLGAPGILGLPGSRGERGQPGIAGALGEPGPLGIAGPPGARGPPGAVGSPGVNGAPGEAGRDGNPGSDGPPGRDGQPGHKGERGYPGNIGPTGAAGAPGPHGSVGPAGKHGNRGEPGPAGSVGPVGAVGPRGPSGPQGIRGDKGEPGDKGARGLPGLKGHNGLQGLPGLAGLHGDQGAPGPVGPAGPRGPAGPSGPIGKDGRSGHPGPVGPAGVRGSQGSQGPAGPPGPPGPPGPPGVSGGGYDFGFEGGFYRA
T2 sequence (P02452 162-1218 limits assumed, chain 1 of 2): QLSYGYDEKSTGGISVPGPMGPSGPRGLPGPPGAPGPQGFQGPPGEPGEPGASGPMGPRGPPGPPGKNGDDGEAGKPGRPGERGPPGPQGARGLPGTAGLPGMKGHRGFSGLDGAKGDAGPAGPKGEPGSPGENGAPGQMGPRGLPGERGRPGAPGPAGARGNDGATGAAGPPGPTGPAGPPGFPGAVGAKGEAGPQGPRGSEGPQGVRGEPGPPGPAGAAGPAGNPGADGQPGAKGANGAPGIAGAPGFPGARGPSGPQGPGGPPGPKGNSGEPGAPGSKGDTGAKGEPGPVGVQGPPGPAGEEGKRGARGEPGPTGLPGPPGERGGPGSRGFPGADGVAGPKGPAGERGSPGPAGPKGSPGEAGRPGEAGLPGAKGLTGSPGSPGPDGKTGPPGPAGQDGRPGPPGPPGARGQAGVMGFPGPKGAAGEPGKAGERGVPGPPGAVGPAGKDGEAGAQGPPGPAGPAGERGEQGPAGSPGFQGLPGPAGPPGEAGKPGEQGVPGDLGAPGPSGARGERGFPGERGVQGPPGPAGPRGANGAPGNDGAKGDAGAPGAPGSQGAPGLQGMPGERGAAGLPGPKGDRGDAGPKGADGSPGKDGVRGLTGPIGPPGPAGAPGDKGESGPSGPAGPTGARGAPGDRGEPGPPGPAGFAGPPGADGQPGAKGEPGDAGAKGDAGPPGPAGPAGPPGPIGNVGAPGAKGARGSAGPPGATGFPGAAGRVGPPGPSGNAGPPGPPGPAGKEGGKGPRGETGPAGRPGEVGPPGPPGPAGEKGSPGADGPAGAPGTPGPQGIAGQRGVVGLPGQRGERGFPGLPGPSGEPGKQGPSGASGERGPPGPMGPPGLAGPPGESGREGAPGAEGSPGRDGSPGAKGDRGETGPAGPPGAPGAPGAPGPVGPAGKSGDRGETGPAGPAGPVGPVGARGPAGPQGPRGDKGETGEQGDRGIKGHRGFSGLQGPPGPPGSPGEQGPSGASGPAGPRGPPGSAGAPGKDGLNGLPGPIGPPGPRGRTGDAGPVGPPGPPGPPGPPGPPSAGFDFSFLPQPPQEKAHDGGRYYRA
T2 sequence (P08123 80-1119 limits assumed, chain 2 of 2): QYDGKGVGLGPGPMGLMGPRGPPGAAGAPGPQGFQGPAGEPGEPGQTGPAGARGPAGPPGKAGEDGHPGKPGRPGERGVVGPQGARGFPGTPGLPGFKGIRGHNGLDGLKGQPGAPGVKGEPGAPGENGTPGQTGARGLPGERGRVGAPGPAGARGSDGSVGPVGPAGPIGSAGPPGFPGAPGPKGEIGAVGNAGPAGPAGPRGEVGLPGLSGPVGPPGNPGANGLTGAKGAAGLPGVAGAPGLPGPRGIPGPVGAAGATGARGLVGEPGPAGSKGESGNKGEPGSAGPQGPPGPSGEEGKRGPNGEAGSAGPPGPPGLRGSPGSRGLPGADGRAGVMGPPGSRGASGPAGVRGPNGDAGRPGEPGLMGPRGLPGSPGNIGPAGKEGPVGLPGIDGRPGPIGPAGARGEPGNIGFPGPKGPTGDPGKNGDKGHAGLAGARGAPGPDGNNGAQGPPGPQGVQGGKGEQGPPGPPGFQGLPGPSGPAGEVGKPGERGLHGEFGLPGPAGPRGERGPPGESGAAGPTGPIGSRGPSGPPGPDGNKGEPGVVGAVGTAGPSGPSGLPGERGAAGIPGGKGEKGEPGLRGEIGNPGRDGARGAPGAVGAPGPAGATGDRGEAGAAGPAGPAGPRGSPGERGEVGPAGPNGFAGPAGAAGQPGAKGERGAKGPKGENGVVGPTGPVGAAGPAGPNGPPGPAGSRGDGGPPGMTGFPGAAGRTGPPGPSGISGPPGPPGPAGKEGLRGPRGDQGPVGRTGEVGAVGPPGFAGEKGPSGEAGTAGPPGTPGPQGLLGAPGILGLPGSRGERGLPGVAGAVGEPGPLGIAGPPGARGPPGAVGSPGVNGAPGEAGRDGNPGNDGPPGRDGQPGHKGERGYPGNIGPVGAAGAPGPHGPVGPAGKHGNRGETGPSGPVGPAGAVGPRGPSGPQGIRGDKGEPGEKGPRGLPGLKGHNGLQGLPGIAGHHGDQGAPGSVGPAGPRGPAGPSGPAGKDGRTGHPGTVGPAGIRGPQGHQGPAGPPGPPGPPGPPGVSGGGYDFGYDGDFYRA

As to YHACYQAGCYIW (disulfide 4-9; not fully specified (C-terminus)) [SEQ ID NO: 107], in test [1], the “% Collagen Binding” value was 6%.
On to YHASYQAGSWIW (not fully specified) [SEQ ID NO: 111], for which the “% Collagen Binding” value was determined as 24% in test [1] and 0% in test [2].
